According to publication PMC9556795, “Micro-electron diffraction structure of the aggregation-driving N terminus of Drosophila neuronal protein Orb2A reveals amyloid-like β-sheets” (The Journal of Biological Chemistry, 2022):

Target: the molecule itself
Assay: crystal structure; micro-electron diffraction (micro-ED) of M9I microcrystals grown in batch: 6 mg/ml peptide in 1% DMSO mixed 1:1 with 0.1 M sodium phosphate pH 4.6, 1.5 M NaCl, room temperature; 1.05 Å, direct methods

B1: M9I, the first 9 N-terminal residues of Drosophila Orb2A (peptide)
peptide: MYNKFVNFI
notes: Dissolved in 100% DMSO, then diluted in water or buffer; Terminal protecting groups are not mentioned; also called M9I-WT; wildtype M9I; source: synthetic peptide, bought: Genscript (>98% purity)
Q: Does B1 bind?
A: binds
